From article PMC4849472 (Cell Discovery, 2016) come the findings set out here.

Bounds are passed on as bounds.

Conditions in all cases: both partners purified
The target in assay [1] is T1, Hsp90 (human, UniProt P07900 1-732). Kind of assay: native MS; (Hsp70)2, GR, Hop and (Hsp90)2 all at 0.5 μM with Hsp40 and excess ATP; then an equimolar ratio of FKBP52 added to the formed complex.
For assay [2], the target named is T1, Hsp90. Kind of assay: native MS; p23 added to the client-transfer complex without immunophilin, with ATP; MS/MS (collision-induced dissociation) of the isolated 32+ charge state of (Hsp90)2(p23)2(GR)1.
The target in assay [3] is T1, Hsp90. In words: native MS; as a8, then stoichiometric p23 added (300 μM ATP magnesium acetate, a further 15 min).
Assay [4] deals with T1, Hsp90. Kind of assay: native MS; as a12 (Hsp90/Hsp70/Hop/GR/Hsp40/p23/FKBP51), then challenged with excess FKBP52.
Assay [5] deals with T1, Hsp90. Kind of assay: native MS; Hsp90_(2) 3 μM with FKBP51 and FKBP52 in twofold molar excess (6 μM), the highest concentrations studied.
The target of assay [6] is T1, Hsp90. In words: native MS; Hsp90_(2) 1 μM with 2 μM of both FKBP51 and FKBP52.
For assay [7], the target named is client-transfer complex (Hsp90)2(Hop)1(Hsp70)2(GR)1 (human, UniProt P07900 1-732; P31948 1-543; P0DMV8 1-641; P04150 521-777, F602S). In words: native MS; (Hsp70)2, GR, Hop and (Hsp90)2 all at 0.5 μM with Hsp40 and excess ATP; then an equimolar ratio of FKBP52 added to the formed complex.
Assay [8] addresses T1, Hsp90. Kind of assay: native MS; competition: Hsp90_(2) with Hop, FKBP51 and FKBP52, all at equimolar concentration (3 μM).

B1: glucocorticoid receptor ligand-binding domain (residues 521-777, F602S) (domain or fragment, human, UniProt P04150 521-777, looked up)
chain: VPATLPQLTPTLVSLLEVIEPEVLYAGYDSSVPDSTWRIMTTLNMLGGRQVIAAVKWAKAIPGFRNLHLDDQMTLLQYSWMSLMAFALGWRSYRQSSANLLCFAPDLIINEQRMTLPCMYDQCKHMLYVSSELHRLQVSYEEYLCMKTLLLLSSVPKDGLKSQELFDEIRMTYIKELGKAIVKREGNSSQNWQRFYQLTKLLDSMHEVVENLLNYCFQTFLDKTMSIEFPEMLAEIITNQIPKYSNGNIKKLLFHQK
notes: Used without ligand; also called GR; source: provided by Sophie Jackson and David Agard's labs; expressed and purified as previously described [33]
With B1, the “stoichiometry N” value with Hsp90 [1] turned out to be 1 per Hsp90 dimer.

B2: p23 (natural protein, human, UniProt Q15185 1-160, looked up)
chain: MQPASAKWYDRRDYVFIEFCVEDSKDVNVNFEKSKLTFSCLGGSDNFKHLNEIDLFHCIDPNDSKHKRTDRSILCCLRKGESGQSWPRLTKERAKLNWLSVDFNNWKDWEDDSDEDMSNFDRFSEMMNNMGGDEDVDLPEVDGADDDSQDSDDEKMPDLE
notes: p23 co-chaperone, human; source: provided by Sophie Jackson and David Agard's labs; expressed and purified as previously described [33]
For the molecule B2, the “stoichiometry N” value with Hsp90 [2] was determined as 2 per Hsp90 dimer; with Hsp90 [3] it was 1 per Hsp90 dimer.

B3: FKBP52 (natural protein, human, UniProt Q02790 1-459, looked up)
chain: MTAEEMKATESGAQSAPLPMEGVDISPKQDEGVLKVIKREGTGTEMPMIGDRVFVHYTGWLLDGTKFDSSLDRKDKFSFDLGKGEVIKAWDIAIATMKVGEVCHITCKPEYAYGSAGSPPKIPPNATLVFEVELFEFKGEDLTEEEDGGIIRRIQTRGEGYAKPNEGAIVEVALEGYYKDKLFDQRELRFEIGEGENLDLPYGLERAIQRMEKGEHSIVYLKPSYAFGSVGKEKFQIPPNAELKYELHLKSFEKAKESWEMNSEEKLEQSTIVKERGTVYFKEGKYKQALLQYKKIVSWLEYESSFSNEEAQKAQALRLASHLNLAMCHLKLQAFSAAIESCNKALELDSNNEKGLFRRGEAHLAVNDFELARADFQKVLQLYPNNKAAKTQLAVCQQRIRRQLAREKKLYANMFERLAEEENKAKAEASSGDHPTDTEMKEEQKSNTAGSQSQVETEA
notes: FKBP52, human immunophilin; The cited PDB entries hold overlapping segments of FKBP52, not the construct used here; source: provided by Sophie Jackson and David Agard's labs; expressed and purified as previously described [33]
With B3, the “stoichiometry N” value in the assay with Hsp90 [4] is 1 per Hsp90 monomer; in the assay with Hsp90 [5] it was not above 2 per Hsp90 monomer; with Hsp90 [6] it was not above 2 per Hsp90 dimer; in assay [7], 1 per client-transfer complex; in the assay with Hsp90 [8], 1 per Hsp90 dimer.

A word on the stoichiometry N: it is the number of molecules, sites or subunits per partner or assembly.
